T1: human FcγRIIA (R131, Sino Biological Cat. No. 10374-H08H) (human, UniProt P12318 34-218)
T1 construct: bought; also called human FcγRIIa R131 allele; FcγRII allele R131
T1 sequence (looked up): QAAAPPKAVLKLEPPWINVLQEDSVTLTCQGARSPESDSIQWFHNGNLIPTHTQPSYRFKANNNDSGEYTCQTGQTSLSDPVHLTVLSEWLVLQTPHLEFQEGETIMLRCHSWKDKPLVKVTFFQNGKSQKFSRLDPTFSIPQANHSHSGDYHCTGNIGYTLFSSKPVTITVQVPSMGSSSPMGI


What was measured:
[1] = target: T2, Histidine-tagged recombinant human FcγRI (CD64) (human, UniProt P12314 16-288); test: SPR, captured His-receptor
T2 construct: bought; also called Sino Biological Cat. No. 12056-H08H

[2] = target: T3, human FcγRIIIB (NA2 allotype, Sino Biological Cat. No. 11046-H08H) (human, UniProt O75015 17-200); test: SPR, captured His-receptor
T3 construct: bought; also called human FcγRIIIb NA2 allele

[3] = target: T1, human FcγRIIA (R131, Sino Biological …); test: SPR, captured His-receptor
[4] = target: T2, Histidine-tagged recombinant human …; test: SPR, culture supernatant, captured His-FcγRI;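 further: biacore T200 SPR at 25 °C, anti-His capture, supernatants of HEK293 cells expressing IgG1 Fc variants injected 1 min, reference-subtracted response read 55 s after injection start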

| binding result [1] | binding result [2] | binding result [3] | Mean binding response [4] [RU] | Binder |
| --- | --- | --- | --- | --- |
| no binding (tested: 100 µg/mL) | no binding (tested: 100 µg/mL) | no binding (tested: 100 µg/mL) | 21.8 | anti-CD20 human IgG1 L234G/L235S/G236R (antibody, also called 1-59; 2-19; copies: 2 + 2) heavy: QVQLQQPGAELVKPGASVKMSCKASGYTFTSYNMHWVKQTPGRGLEWIGAIYPGNGDTSYNQKFKGKATLTADKSSSTAYMQLSSLTSEDSAVYYCARSTYYGGDWYFNVWGAGTTVTVSSASTKGPSVFPLAPSSKSTSGGTAALGCLVKDYFPEPVTVSWNSGALTSGVHTFPAVLQSSGLYSLSSVVTVPSSSLGTQTYICNVNHKPSNTKVDKKVEPKSCDKTHTCPPCPAPEGSRGPSVFLFPPKPKDTLMISRTPEVTCVVVDVSHEDPEVKFNWYVDGVEVHNAKTKPREEQYNSTYRVVSVLTVLHQDWLNGKEYKCKVSNKALPAPIEKTISKAKGQPREPQVYTLPPSRDELTKNQVSLTCLVKGFYPSDIAVEWESNGQPENNYKTTPPVLDSDGSFFLYSKLTVDKSRWQQGNVFSCSVMHEALHNHYTQKSLSLSPGK light: QIVLSQSPAILSASPGEKVTMTCRASSSVSYIHWFQQKPGSSPKPWIYATSNLASGVPVRFSGSGSGTSYSLTISRVEAEDAATYYCQQWTSNPPTFGGGTKLEIKRTVAAPSVFIFPPSDEQLKSGTASVVCLLNNFYPREAKVQWKVDNALQSGNSQESVTEQDSKDSTYSLSSTLTLSKADYEKHKVYACEVTHQGLSSPVTKSFNRGEC |
| no binding (tested: 100 µg/mL) | no binding (tested: 100 µg/mL) | no binding (tested: 100 µg/mL) | 16.2 | anti-CD20 human IgG1 L234S/L235T/G236R (antibody, also called 1-150; 2-52; copies: 2 + 2) heavy: QVQLQQPGAELVKPGASVKMSCKASGYTFTSYNMHWVKQTPGRGLEWIGAIYPGNGDTSYNQKFKGKATLTADKSSSTAYMQLSSLTSEDSAVYYCARSTYYGGDWYFNVWGAGTTVTVSSASTKGPSVFPLAPSSKSTSGGTAALGCLVKDYFPEPVTVSWNSGALTSGVHTFPAVLQSSGLYSLSSVVTVPSSSLGTQTYICNVNHKPSNTKVDKKVEPKSCDKTHTCPPCPAPESTRGPSVFLFPPKPKDTLMISRTPEVTCVVVDVSHEDPEVKFNWYVDGVEVHNAKTKPREEQYNSTYRVVSVLTVLHQDWLNGKEYKCKVSNKALPAPIEKTISKAKGQPREPQVYTLPPSRDELTKNQVSLTCLVKGFYPSDIAVEWESNGQPENNYKTTPPVLDSDGSFFLYSKLTVDKSRWQQGNVFSCSVMHEALHNHYTQKSLSLSPGK light: QIVLSQSPAILSASPGEKVTMTCRASSSVSYIHWFQQKPGSSPKPWIYATSNLASGVPVRFSGSGSGTSYSLTISRVEAEDAATYYCQQWTSNPPTFGGGTKLEIKRTVAAPSVFIFPPSDEQLKSGTASVVCLLNNFYPREAKVQWKVDNALQSGNSQESVTEQDSKDSTYSLSSTLTLSKADYEKHKVYACEVTHQGLSSPVTKSFNRGEC |
| binds | no binding (tested: 100 µg/mL) | no binding (tested: 100 µg/mL) |  | anti-CD20 human IgG2 L234Q/L235S (antibody, also called 11.144; copies: 2 + 2) heavy: QVQLQQPGAELVKPGASVKMSCKASGYTFTSYNMHWVKQTPGRGLEWIGAIYPGNGDTSYNQKFKGKATLTADKSSSTAYMQLSSLTSEDSAVYYCARSTYYGGDWYFNVWGAGTTVTVSSASTKGPSVFPLAPCSRSTSESTAALGCLVKDYFPEPVTVSWNSGALTSGVHTFPAVLQSSGLYSLSSVVTVPSSNFGTQTYTCNVDHKPSNTKVDKTVERKCCVECPPCPAPPQSGPSVFLFPPKPKDTLMISRTPEVTCVVVDVSHEDPEVQFNWYVDGVEVHNAKTKPREEQFNSTFRVVSVLTVVHQDWLNGKEYKCKVSNKGLPAPIEKTISKTKGQPREPQVYTLPPSREEMTKNQVSLTCLVKGFYPSDIAVEWESNGQPENNYKTTPPMLDSDGSFFLYSKLTVDKSRWQQGNVFSCSVMHEALHNHYTQKSLSLSPGK light: QIVLSQSPAILSASPGEKVTMTCRASSSVSYIHWFQQKPGSSPKPWIYATSNLASGVPVRFSGSGSGTSYSLTISRVEAEDAATYYCQQWTSNPPTFGGGTKLEIKRTVAAPSVFIFPPSDEQLKSGTASVVCLLNNFYPREAKVQWKVDNALQSGNSQESVTEQDSKDSTYSLSSTLTLSKADYEKHKVYACEVTHQGLSSPVTKSFNRGEC |
| no binding (tested: 100 µg/mL) | no binding (tested: 100 µg/mL) | no binding (tested: 100 µg/mL) |  | anti-CD20 human IgG4 L234Q/L235S/G236R (with S228P) (antibody, copies: 2 + 2) heavy: QVQLQQPGAELVKPGASVKMSCKASGYTFTSYNMHWVKQTPGRGLEWIGAIYPGNGDTSYNQKFKGKATLTADKSSSTAYMQLSSLTSEDSAVYYCARSTYYGGDWYFNVWGAGTTVTVSSASTKGPSVFPLAPCSRSTSESTAALGCLVKDYFPEPVTVSWNSGALTSGVHTFPAVLQSSGLYSLSSVVTVPSSSLGTKTYTCNVDHKPSNTKVDKRVESKYGPPCPPCPAPEQSRGPSVFLFPPKPKDTLMISRTPEVTCVVVDVSQEDPEVQFNWYVDGVEVHNAKTKPREEQFNSTYRVVSVLTVLHQDWLNGKEYKCKVSNKGLPSSIEKTISKAKGQPREPQVYTLPPSQEEMTKNQVSLTCLVKGFYPSDIAVEWESNGQPENNYKTTPPVLDSDGSFFLYSRLTVDKSRWQEGNVFSCSVMHEALHNHYTQKSLSLSLGK light: QIVLSQSPAILSASPGEKVTMTCRASSSVSYIHWFQQKPGSSPKPWIYATSNLASGVPVRFSGSGSGTSYSLTISRVEAEDAATYYCQQWTSNPPTFGGGTKLEIKRTVAAPSVFIFPPSDEQLKSGTASVVCLLNNFYPREAKVQWKVDNALQSGNSQESVTEQDSKDSTYSLSSTLTLSKADYEKHKVYACEVTHQGLSSPVTKSFNRGEC |
| no binding (tested: 100 µg/mL) | no binding (tested: 100 µg/mL) | no binding (tested: 100 µg/mL) |  | anti-CD20 mouse IgG2a L234Q/L235S/G236R (antibody, copies: 2 + 2) heavy: QVQLQQPGAELVKPGASVKMSCKASGYTFTSYNMHWVKQTPGRGLEWIGAIYPGNGDTSYNQKFKGKATLTADKSSSTAYMQLSSLTSEDSAVYYCARSTYYGGDWYFNVWGAGTTVTVSSAKTTAPSVYPLAPVCGDTTGSSVTLGCLVKGYFPEPVTLTWNSGSLSSGVHTFPAVLQSDLYTLSSSVTVTSSTWPSQSITCNVAHPASSTKVDKKIEPRGPTIKPCPPCKCPAPNQSRGPSVFIFPPKIKDVLMISLSPIVTCVVVDVSEDDPDVQISWFVNNVEVHTAQTQTHREDYNSTLRVVSALPIQHQDWMSGKEFKCKVNNKDLPAPIERTISKPKGSVRAPQVYVLPPPEEEMTKKQVTLTCMVTDFMPEDIYVEWTNNGKTELNYKNTEPVLDSDGSYFMYSKLRVEKKNWVERNSYSCSVVHEGLHNHHTTKSFSRTPGK light: QIVLSQSPAILSASPGEKVTMTCRASSSVSYIHWFQQKPGSSPKPWIYATSNLASGVPVRFSGSGSGTSYSLTISRVEAEDAATYYCQQWTSNPPTFGGGTKLEIKRADAAPTVSIFPPSSEQLTSGGASVVCFLNNFYPKDINVKWKIDGSERQNGVLNSWTDQDSKDSTYSMSSTLTLTKDEYERHNSYTCEATHKTSTSPIVKSFNRNEC |
| no binding (tested: 100 µg/mL) | no binding (tested: 100 µg/mL) | no binding (tested: 100 µg/mL) |  | anti-CD20 rabbit IgG L234Q/L235S/G236R (antibody, also called 23.77) heavy: QVQLQQPGAELVKPGASVKMSCKASGYTFTSYNMHWVKQTPGRGLEWIGAIYPGNGDTSYNQKFKGKATLTADKSSSTAYMQLSSLTSEDSAVYYCARSTYYGGDWYFNVWGAGTTVTVSSGQPKAPSVFPLAPCCGDTPSSTVTLGCLVKGYLPEPVTVTWNSGTLTNGVRTFPSVRQSSGLYSLSSVVSVTSSSQPVTCNVAHPATNTKVDKTVAPSTCSKPTCPPPEQSRGPSVFIFPPKPKDTLMISRTPEVTCVVVDVSEDDPEVQFTWYINNEQVRTARPPLREQQFNSTIRVVSTLPIAHEDWLRGKEFKCKVHNKALPAPIEKTISKARGQPLEPKVYTMGPPREELSSRSVSLTCMINGFYPSDISVEWEKNGKAEDNYKTTPAVLDSDGSYFLYSKLSVPTSEWQRGDVFTCSVMHEALHNHYTQKSISRSPGK light: QIVLSQSPAILSASPGEKVTMTCRASSSVSYIHWFQQKPGSSPKPWIYATSNLASGVPVRFSGSGSGTSYSLTISRVEAEDAATYYCQQWTSNPPTFGGGTKLEIKRDPVAPSVLLFPPSKEELTTGTATIVCVANKFYPSDITVTWKVDGTTQQSGIENSKTPQSPEDNTYSLSSTLSLTSAQYNSHSVYTCEVVQGSASPIVQSFNRGDC |
| no binding (tested: 100 µg/mL) | no binding (tested: 100 µg/mL) | no binding (tested: 100 µg/mL) |  | anti-CD20 human IgG1 L234T/L235T/G236R (antibody, also called 1-165; 2-63; copies: 2 + 2) heavy: QVQLQQPGAELVKPGASVKMSCKASGYTFTSYNMHWVKQTPGRGLEWIGAIYPGNGDTSYNQKFKGKATLTADKSSSTAYMQLSSLTSEDSAVYYCARSTYYGGDWYFNVWGAGTTVTVSSASTKGPSVFPLAPSSKSTSGGTAALGCLVKDYFPEPVTVSWNSGALTSGVHTFPAVLQSSGLYSLSSVVTVPSSSLGTQTYICNVNHKPSNTKVDKKVEPKSCDKTHTCPPCPAPETTRGPSVFLFPPKPKDTLMISRTPEVTCVVVDVSHEDPEVKFNWYVDGVEVHNAKTKPREEQYNSTYRVVSVLTVLHQDWLNGKEYKCKVSNKALPAPIEKTISKAKGQPREPQVYTLPPSRDELTKNQVSLTCLVKGFYPSDIAVEWESNGQPENNYKTTPPVLDSDGSFFLYSKLTVDKSRWQQGNVFSCSVMHEALHNHYTQKSLSLSPGK light: QIVLSQSPAILSASPGEKVTMTCRASSSVSYIHWFQQKPGSSPKPWIYATSNLASGVPVRFSGSGSGTSYSLTISRVEAEDAATYYCQQWTSNPPTFGGGTKLEIKRTVAAPSVFIFPPSDEQLKSGTASVVCLLNNFYPREAKVQWKVDNALQSGNSQESVTEQDSKDSTYSLSSTLTLSKADYEKHKVYACEVTHQGLSSPVTKSFNRGEC |

Reference: patent US20230235013A1 (MABSOLVE, published 2023)
